For 3 substances, botrocetin/ristocetin-induced agglutination inhibition assay using PRP and concentration that inhibited the binding of vWF to platelets results are on record in US5679542.

Where “and” joins values, the source holds several entries; their conditions need not be identical. Equal entries are not always repeated. Some results are limits rather than exact numbers.

Experiment [1] deals with platelet glycoprotein GPIb-IX complex (Homo sapiens (Human)) (UniProt P07359).
Experiment [2] has the same target. Description: inhibition of botrocetin-induced 125I-vWF binding to washed platelets (procedure of Ruggeri et al.); competitor vWF.

On to “CC, platelet antiadhesive purified from Cerastes cerastes venom”, for which the botrocetin/ristocetin-induced agglutination inhibition assay using PRP in experiment [1] is 3 µg/mL and 2 µg/mL.

Regarding “purified protein from C. horridus horridus, as prepared in Example 2 (as tested in Example 6)”, the botrocetin/ristocetin-induced agglutination inhibition assay using PRP in experiment [1] was 2 µg/mL and 3 µg/mL.

Regarding “CHH-B, platelet antiadhesive (GPIb inhibitor) purified from Crotalus horridus horridus venom”, the concentration that inhibited the binding of vWF to platelets in experiment [2] is less than 200 nM.
